Reference: patent US20070036806A1

Target: human GLP-1 receptor (human) (UniProt P43220)
Assay: cell-based or functional assay

Chain of human GLP-1 receptor (human) (P43220 24-463): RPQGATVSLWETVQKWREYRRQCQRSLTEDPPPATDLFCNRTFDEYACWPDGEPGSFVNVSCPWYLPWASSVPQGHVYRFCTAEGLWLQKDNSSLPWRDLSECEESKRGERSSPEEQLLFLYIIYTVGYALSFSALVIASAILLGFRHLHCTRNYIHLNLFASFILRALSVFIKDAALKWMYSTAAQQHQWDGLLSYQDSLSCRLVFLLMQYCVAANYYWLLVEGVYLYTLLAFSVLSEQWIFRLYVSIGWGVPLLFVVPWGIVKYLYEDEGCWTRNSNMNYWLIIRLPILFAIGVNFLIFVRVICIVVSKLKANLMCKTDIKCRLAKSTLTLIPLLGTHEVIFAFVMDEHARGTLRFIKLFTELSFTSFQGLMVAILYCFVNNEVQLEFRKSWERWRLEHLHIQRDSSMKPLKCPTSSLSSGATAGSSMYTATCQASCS
Chain of Gly^8-Glu^22-Gly^36-GLP-1(7-37)-2L-IgG4(S228P, F234A, L235A) (Fc fusion) (main): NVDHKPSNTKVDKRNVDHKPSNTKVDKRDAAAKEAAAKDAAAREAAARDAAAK
Chain of Gly^8-Glu^22-GLP-1(7-37)-1.5L-IgG4(S228P, F234A, L235A) (Fc fusion) (main): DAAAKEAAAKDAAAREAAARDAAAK

Row | Activity (from EC50, relative to Val^8-GLP-1(7-37)OH); CRE-BLAM (beta-lactamase) reporter in HEK-293 cells expressing the human GLP-1 receptor | Activity (from EC50, relative to Val^8-GLP-1(7-37)OH, corrected for the 2-fold molarity of dimers); CRE-Luciferase reporter in HEK-293 cells stably expressing the human GLP-1 receptor | Substance
1 | 314% | 595% | Gly^8-Glu^22-GLP-1(7-37)-1.5L-IgG4(S228P, F234A, L235A) (Fc fusion)
2 | 468% | 1120% | Gly^8-Glu^22-GLP-1(7-37)-1L-IgG4(S228P, F234A, L235A) (Fc fusion)
3 | 301% | 535% | Gly^8-Glu^22-GLP-1(7-37)-2L-IgG4(S228P, F234A, L235A) (Fc fusion)
4 |  | 417% | Gly^8-Glu^22-Gly^36-GLP-1(7-37)-1L-IgG4(S228P, F234A, L235A) (Fc fusion)
5 | 441% | 398% | Gly^8-Glu^22-Gly^36-GLP-1(7-37)-2L-IgG4(S228P, F234A, L235A) (Fc fusion)
